These results are taken from patent publication US20230414781A1 (BLISS BIOPHARMACEUTICAL HANGZHOU, published 2023).

Test [1] deals with T1, B7-H3 on B7-H3-expressing cancer cells (UniProt Q5ZPR3 29-534, limits assumed).
T1 construct: whole, on cells; Endogenous expression on tumour cell lines; also called B7-H3 expressing cells; CD276
T1 sequence (looked up): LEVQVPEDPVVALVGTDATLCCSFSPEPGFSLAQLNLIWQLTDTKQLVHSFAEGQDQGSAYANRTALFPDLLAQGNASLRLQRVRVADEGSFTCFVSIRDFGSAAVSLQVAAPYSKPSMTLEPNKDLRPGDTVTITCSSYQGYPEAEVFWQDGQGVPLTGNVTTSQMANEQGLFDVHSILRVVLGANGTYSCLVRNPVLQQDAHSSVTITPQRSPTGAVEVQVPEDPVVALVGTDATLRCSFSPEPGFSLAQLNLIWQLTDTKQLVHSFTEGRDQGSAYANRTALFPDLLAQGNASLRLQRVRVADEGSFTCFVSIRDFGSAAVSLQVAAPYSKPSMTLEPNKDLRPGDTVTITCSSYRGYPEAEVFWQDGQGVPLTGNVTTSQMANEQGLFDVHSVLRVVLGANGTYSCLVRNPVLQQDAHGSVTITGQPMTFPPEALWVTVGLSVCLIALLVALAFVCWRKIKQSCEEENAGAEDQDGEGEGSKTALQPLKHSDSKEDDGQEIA
The test can be described thus: FACS on BT-474 (breast) cells. Here is the method:
(§1) Screening for B7-H3-expressing cells were performed using FACS with 27B4H4L3 antibody and MFI of 27B4H4L3 to those cells shown in Table 2. FACS assay was also used to exam and compare the binding capabilities of the 27B4H4L3 antibody, BH73 antibody, 27B4H4L3-MMAE and BH73-Eribulin to B7-H3-expressing cells. To perform the assay, target cells and samples were incubated at 4° C. for 1 h. After wash, samples and secondary antibody (goat pAb to human IgG (FITC) (Abcam, ab97224)) were incubated. FACS was performed on […] (BD, Accuri C6 Plus) and mean fluorescence intensity (MFI) was reported. Three cell lines (U87MG, BT-474 and HT-29) representing B7-H3 high- and low-expressing cells were used to compare binding capacities of different antibody constructs and ADCs.

Test [2] concerns the target T1, B7-H3 on B7-H3-expressing cancer cells. The test can be described thus: FACS on HT-29 (colon) cells. The method, then:
as §1

The target is the same in test [3]. The test is described as follows: FACS on U87 (glioma) cells. Here is the method: as §1

B1: 27B4H4L3 antibody (antibody, human IgG1, kappa)
heavy: EVQLVQSGAEVKKPGESLKISCKASGYTFTTYWIGWVRQMPGKGLEWMGIIYPGDGGSRYSPSFQGQVTISADKSISTAYLQWSSLKASDTAMYYCARGGNYISFPMYYWGQGTLVTVSSASTKGPSVFPLAPSSKSTSGGTAALGCLVKDYFPEPVTVSWNSGALTSGVHTFPAVLQSSGLYSLSSVVTVPSSSLGTQTYICNVNHKPSNTKVDKRVEPKSCDKTHTCPPCPAPELVGGPSVFLLPPKPKDTLMISRTPEVTCVVVDVSHEDPEVKFNWYVDGVEVHNAKTKPPEEQYNSTLRVVSVLTVLHQDWLNGKEYKCKVSNKALPAPIEKTISKAKGQPREPQVYTLPPSREEMTKNQVSLTCLVKGFYPSDIAVEWESNGQPENNYKTTPLVLDSDGSFFLYSKLTVDKSRWQQGNVFSCSVMHEALHNHYTQKSLSLSPGK
light: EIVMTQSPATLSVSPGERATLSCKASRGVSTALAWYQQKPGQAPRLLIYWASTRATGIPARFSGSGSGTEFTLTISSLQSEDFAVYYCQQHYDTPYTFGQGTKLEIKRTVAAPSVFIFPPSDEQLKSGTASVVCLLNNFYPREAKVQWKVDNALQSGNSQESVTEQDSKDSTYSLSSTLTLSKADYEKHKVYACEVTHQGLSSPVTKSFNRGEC
notes: also called 27B4H43L3
For the molecule B1, the MFI in test [1] was determined as 126000 MFI; in test [2] it was 69500 MFI; in test [3], 314000 MFI.

B2: 27B4H4L3-MMAE (antibody, human IgG1, kappa)
heavy: EVQLVQSGAEVKKPGESLKISCKASGYTFTTYWIGWVRQMPGKGLEWMGIIYPGDGGSRYSPSFQGQVTISADKSISTAYLQWSSLKASDTAMYYCARGGNYISFPMYYWGQGTLVTVSSASTKGPSVFPLAPSSKSTSGGTAALGCLVKDYFPEPVTVSWNSGALTSGVHTFPAVLQSSGLYSLSSVVTVPSSSLGTQTYICNVNHKPSNTKVDKRVEPKSCDKTHTCPPCPAPELVGGPSVFLLPPKPKDTLMISRTPEVTCVVVDVSHEDPEVKFNWYVDGVEVHNAKTKPPEEQYNSTLRVVSVLTVLHQDWLNGKEYKCKVSNKALPAPIEKTISKAKGQPREPQVYTLPPSREEMTKNQVSLTCLVKGFYPSDIAVEWESNGQPENNYKTTPLVLDSDGSFFLYSKLTVDKSRWQQGNVFSCSVMHEALHNHYTQKSLSLSPGK
light: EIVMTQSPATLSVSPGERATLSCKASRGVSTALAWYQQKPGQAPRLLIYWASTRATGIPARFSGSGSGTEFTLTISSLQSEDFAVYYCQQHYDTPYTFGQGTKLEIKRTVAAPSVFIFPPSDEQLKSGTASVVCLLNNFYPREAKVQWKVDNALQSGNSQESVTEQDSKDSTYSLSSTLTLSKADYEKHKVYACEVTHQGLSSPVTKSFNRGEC
modifications: may carry MC-Val-Cit-PAB-MMAE on an inter-chain disulfide cysteine; positions not given; MC-Val-Cit-PAB-MMAE drug-linker on cysteines of partially reduced inter-chain disulfide bonds; main peaks DAR2, DAR4, DAR6, minor DAR0 and DAR8; positions not given
notes: a mixture of DAR species; also called ADC made of 27B4H4L3 antibody
Turning to B2, the MFI in test [1] was determined as 126000 MFI; in test [2], 65300 MFI; in test [3], 290000 MFI.
